# Paper PMC6006435
# Molecular target: Ageratum yellow vein virus capsid protein (CP), in the geminate virus particle (Ageratum yellow vein virus)
# Assay: cryo-EM structure; single-particle cryo-EM of purified AYVV geminate particles, D5 symmetry, 3.3 Å; particles in 100 mM sodium phosphate pH 7.0; capsid holds the genomic ssDNA
substance,measurement,value
"Ageratum yellow vein virus capsid protein (CP), in the geminate virus particle (natural protein)",stoichiometry N,110
